Test results from patent US7098012B1, “DNA demethylase, therapeutic and diagnostic uses thereof” (McGill University, priority 1997, dated 2006).

Tested on: DNA dMTase
Assay: Demethylation of [mdC32pdG]n substrate (conversion of mdCMP to dCMP) with additives or pretreatment
Assay type: biochemical, human
Details: transformation of mdC to C or release of volatile methyl residues; proteinase K 200 μg/ml 1 h 56° C.; RNase A 100 μg/ml
Procedure: (A) To assay the conversion of methyl-dCMP (mdCMP) to dCMP we used a previously described method (Szyf et al., 1995). Briefly, α^32P labeled, fully methylated poly[mdC^32PdG]n substrate was prepared as follows. One hundred ng of a double-stranded fully methylated (mdCpdG) oligomer (Pharmacia) were denatured by boiling, which was followed by partial annealing at room temperature. The complementary strand was extended with Klenow fragment (Boehringer Mannheim) using methyl-5-dCTP (mdCTP, 0.1 mM) (Boehringer Mannheim) and […] (100 μCi, 3000 Ci/mmol), and the unincorporated nucleotides were removed by chromatography through a NAP-5 column (Pharmacia). The NAP-5 chromatography was repeated to exclude minor contamination with unincorporated nucleotides. […] The digestion products were loaded onto a thin layer chromatography plate (TLC) (Kodak, 13255 Cellulose), separated in a medium containing, 132 ml Isobutyric acid:40 ml water:4 ml ammonia solution, autoradiographed and the intensity of the different spots was determined using a phosphorimager (Fuji, BAS 2000). ^32P labeled substrates and tritium labeled substrates were phosphoimaged using BAS 2000 plate and BAS-TR2040 phosphorimager plate respectively. (B) The second method determined removal of methylated residues from methylated DNA by measuring disappearance of ^3H—CH3 or ^14C—CH3 from the reaction mixture. […]

Molecule	DNA dMTase activity after enzyme treatment
RNase: RNase A (Sigma) used to treat column fractions (protein, UniProt P61823 27-150, looked up) Ribonuclease pancreatic: KETAAAKFERQHMDSSTSAASSSNYCNQMMKSRNLTKDRCKPVNTFVHESLADVQAVCSQKNVACKNGQTNCYQSYSTMSITDCRETGSSKYPNCAYKTTQANKHIIVACEGNPYVPVHFDASV	not inhibited but rather enhanced
proteinase K: proteinase K (Sigma) used to pretreat DNA dMTase (protein, UniProt P06873 106-384, looked up) Proteinase K: AAQTNAPWGLARISSTSPGTSTYYYDESAGQGSCVYVIDTGIEASHPEFEGRAQMVKTYYYSSRDGNGHGTHCAGTVGSRTYGVAKKTQLFGVKVLDDNGSGQYSTIIAGMDFVASDKNNRNCPKGVVASLSLGGGYSSSVNSAAARLQSSGVMVAVAAGNNNADARNYSPASEPSVCTVGASDRYDRRSSFSNYGSVLDIFGPGTSILSTWIGGSTRSISGTSMATPHVAGLAAYLMTLGKTTAASACRYIADTANKGDLSNIPFGTVNLLAYNNYQA	abolished
